From article PMC3630801 (Biochemistry, 2013)
Where two headings read alike, the source gives them in different places. Each block holds one binder with its values, some of them ahead of it.

Assays:
[1] = target: T1, BtuB, Escherichia coli vitamin B12 transporter (wild type) (Escherichia coli, UniProt P06129 21-614); assay: continuous-wave EPR lineshape
T1 sequence (looked up): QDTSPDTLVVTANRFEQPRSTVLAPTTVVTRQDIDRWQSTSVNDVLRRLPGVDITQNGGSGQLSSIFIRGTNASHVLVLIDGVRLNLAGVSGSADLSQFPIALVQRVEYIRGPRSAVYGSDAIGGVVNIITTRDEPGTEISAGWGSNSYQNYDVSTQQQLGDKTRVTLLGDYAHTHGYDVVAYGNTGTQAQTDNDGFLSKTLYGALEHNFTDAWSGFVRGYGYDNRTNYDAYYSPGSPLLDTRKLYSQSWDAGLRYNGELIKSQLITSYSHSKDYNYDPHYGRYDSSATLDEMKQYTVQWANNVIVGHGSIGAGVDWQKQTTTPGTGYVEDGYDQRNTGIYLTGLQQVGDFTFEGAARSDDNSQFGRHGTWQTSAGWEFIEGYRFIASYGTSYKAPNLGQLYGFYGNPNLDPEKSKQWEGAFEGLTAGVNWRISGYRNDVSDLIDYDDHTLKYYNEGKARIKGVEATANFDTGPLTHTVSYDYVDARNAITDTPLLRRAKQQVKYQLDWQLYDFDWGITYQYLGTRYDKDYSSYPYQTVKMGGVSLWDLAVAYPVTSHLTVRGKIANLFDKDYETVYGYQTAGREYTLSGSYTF

[2] = target: the molecule itself; assay: DEER
[3] = target: T2, FhuA, Escherichia coli ferrichrome transporter (Escherichia coli, UniProt P06971 34-747); assay: DEER
T2 sequence (looked up): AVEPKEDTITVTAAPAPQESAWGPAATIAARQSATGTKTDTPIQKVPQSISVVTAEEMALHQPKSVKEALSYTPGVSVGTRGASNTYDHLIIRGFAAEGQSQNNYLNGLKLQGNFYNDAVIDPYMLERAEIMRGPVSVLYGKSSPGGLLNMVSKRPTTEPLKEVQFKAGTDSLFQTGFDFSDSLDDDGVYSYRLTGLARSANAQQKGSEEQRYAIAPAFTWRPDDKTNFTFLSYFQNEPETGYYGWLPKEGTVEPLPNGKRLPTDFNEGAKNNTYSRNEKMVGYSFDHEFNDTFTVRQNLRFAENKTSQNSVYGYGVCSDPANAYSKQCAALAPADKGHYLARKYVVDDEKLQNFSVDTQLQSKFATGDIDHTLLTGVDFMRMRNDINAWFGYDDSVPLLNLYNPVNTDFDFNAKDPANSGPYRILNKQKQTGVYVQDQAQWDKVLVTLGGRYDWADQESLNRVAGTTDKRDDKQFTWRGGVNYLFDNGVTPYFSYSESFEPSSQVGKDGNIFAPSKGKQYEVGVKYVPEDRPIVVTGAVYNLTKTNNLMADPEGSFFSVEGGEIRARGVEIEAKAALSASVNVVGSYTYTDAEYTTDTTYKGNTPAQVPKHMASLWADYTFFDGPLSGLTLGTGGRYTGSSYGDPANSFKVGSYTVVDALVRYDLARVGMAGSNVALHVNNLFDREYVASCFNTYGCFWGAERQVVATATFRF

[4] = target: T3, FecA, Escherichia coli ferric citrate transporter (Escherichia coli, UniProt P13036 34-774); assay: DEER
T3 sequence (looked up): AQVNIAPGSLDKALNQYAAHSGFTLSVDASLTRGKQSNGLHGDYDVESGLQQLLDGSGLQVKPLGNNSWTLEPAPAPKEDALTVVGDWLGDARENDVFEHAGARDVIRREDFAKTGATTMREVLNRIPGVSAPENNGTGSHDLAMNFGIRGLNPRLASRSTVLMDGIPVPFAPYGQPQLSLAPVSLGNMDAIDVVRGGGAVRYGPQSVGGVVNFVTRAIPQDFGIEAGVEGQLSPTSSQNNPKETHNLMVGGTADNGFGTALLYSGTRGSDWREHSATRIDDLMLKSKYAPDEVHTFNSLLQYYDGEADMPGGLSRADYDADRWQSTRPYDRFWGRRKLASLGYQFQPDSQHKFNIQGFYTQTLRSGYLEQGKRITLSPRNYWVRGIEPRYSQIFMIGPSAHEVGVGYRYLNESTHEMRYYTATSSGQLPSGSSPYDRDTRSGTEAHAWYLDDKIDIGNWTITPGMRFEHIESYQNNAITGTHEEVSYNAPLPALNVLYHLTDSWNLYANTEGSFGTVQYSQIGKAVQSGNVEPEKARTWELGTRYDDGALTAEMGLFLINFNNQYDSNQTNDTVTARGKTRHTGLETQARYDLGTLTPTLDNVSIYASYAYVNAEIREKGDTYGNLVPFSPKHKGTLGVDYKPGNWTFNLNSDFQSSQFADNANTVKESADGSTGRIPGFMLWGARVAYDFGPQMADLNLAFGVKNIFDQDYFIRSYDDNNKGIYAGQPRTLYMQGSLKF

[5] = target: T1, BtuB, Escherichia coli vitamin B12 …; assay: fluorescence polarisation
[6] = target: T2, FhuA, Escherichia coli ferrichrome …; assay: fluorescence polarisation
[7] = target: T1, BtuB, Escherichia coli vitamin B12 …; assay: fluorescence polarisation; remark: listed apart in the source
[8] = target: T2, FhuA, Escherichia coli ferrichrome …; assay: fluorescence polarisation; remark: listed apart in the source

binding result [1]: binds
B1: TonB_(ΔTMD) I224R1 (spin-labeled) (domain or fragment)
chain: not shown
modifications: R1 spin-label side chain (cysteine derivatized with MTSL) at 224
binding result [2]: binds

Kd [5]: 26 nM
Kd [6]: 38 nM
Kd [7]: 61 nM
Kd [8]: 64 nM
B4: TonB_(ΔTMD) L194C labeled with BODIPY FL (domain or fragment)
chain: not shown
modifications: BODIPY FL N-(2-aminoethyl)maleimide on Cys194 (labeling efficiency ~75%)

More lines, now with the values behind:

B2: TonB_(ΔTMD) E203R1 (spin-labeled) (domain or fragment)
chain: not shown
modifications: R1 spin-label side chain (cysteine derivatized with MTSL) at 203
binding result [1]: binds
binding result [2]: binds
binding result [3]: binds
binding result [4]: binds

B3: TonB_(ΔTMD) R187R1 (spin-labeled) (domain or fragment)
chain: not shown
modifications: R1 spin-label side chain (cysteine derivatized with MTSL) at 187
binding result [1]: binds
